For this assay, the target named is ccyl1_mouse Ccnyl1 (UniProt D3YUJ3).

From IntAct's records for PubMed 26305884 come the findings set out here.

ccyl1_mouse Ccnyl1, sequence (D3YUJ3 whole entry): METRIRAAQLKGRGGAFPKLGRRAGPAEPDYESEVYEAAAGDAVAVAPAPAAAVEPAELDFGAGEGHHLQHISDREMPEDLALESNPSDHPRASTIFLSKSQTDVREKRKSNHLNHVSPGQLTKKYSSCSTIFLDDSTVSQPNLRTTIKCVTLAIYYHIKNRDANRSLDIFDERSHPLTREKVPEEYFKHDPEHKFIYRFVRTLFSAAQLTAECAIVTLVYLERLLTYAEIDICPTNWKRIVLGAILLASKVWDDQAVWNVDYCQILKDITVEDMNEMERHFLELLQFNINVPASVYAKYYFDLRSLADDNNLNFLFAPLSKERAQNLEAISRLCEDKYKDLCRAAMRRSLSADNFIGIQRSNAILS
Cyclin-dependent kinase 16 (Mus musculus), Q04735 S153D, sequence (Q04735 whole entry S153D): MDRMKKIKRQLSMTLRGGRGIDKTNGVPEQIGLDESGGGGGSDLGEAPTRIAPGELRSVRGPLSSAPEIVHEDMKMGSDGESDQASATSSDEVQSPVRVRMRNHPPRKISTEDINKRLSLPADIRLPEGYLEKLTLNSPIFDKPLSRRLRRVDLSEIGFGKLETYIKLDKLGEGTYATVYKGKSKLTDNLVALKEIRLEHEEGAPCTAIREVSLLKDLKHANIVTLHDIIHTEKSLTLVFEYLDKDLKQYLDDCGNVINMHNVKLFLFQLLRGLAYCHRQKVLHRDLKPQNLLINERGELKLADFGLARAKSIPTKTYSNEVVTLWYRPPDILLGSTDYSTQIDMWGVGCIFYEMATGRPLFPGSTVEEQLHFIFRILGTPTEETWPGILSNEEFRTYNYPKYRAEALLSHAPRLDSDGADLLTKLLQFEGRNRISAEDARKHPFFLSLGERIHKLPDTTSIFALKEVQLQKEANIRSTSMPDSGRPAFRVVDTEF
Cyclin-dependent kinase 16 (Mus musculus), Q04735 S119A, sequence (Q04735 whole entry S119A): as the sequence (Q04735 whole entry S153D) above, with S119A, D153S counted along it
Cyclin-dependent kinase 16 (Mus musculus), Q04735 S78A, sequence (Q04735 whole entry S78A): as the sequence (Q04735 whole entry S153D) above, with S78A, D153S counted along it
Cyclin-dependent kinase 16 (Mus musculus), Q04735 S146A, sequence (Q04735 whole entry S146A): as the sequence (Q04735 whole entry S153D) above, with S146A, D153S counted along it
Cyclin-dependent kinase 16 (Mus musculus), Q04735 S146D, sequence (Q04735 whole entry S146D): as the sequence (Q04735 whole entry S153D) above, with S146D, D153S counted along it
Cyclin-dependent kinase 16 (Mus musculus), Q04735 S110D, sequence (Q04735 whole entry S110D): as the sequence (Q04735 whole entry S153D) above, with S110D, D153S counted along it
Cyclin-dependent kinase 16 (Mus musculus), Q04735 S110A, sequence (Q04735 whole entry S110A): as the sequence (Q04735 whole entry S153D) above, with S110A, D153S counted along it
Cyclin-dependent kinase 16 (Mus musculus), Q04735 S153A, sequence (Q04735 whole entry S153A): as the sequence (Q04735 whole entry S153D) above, with D153A counted along it

In the case of “Cyclin-dependent kinase 16 (Mus musculus), Q04735 S146D”, the “effect of a mutation on the interaction” value is on record as “disrupting interaction strength”.
As to “Cyclin-dependent kinase 16 (Mus musculus), Q04735 S78A”, the “effect of a mutation on the interaction” value is given as “increasing interaction strength”.
With “Cyclin-dependent kinase 16 (Mus musculus), Q04735 T175A”, the “effect of a mutation on the interaction” value was “decreasing interaction strength”.
The value for “Cyclin-dependent kinase 16 (Mus musculus), Q04735 S153D” was “decreasing interaction strength”; that for “Cyclin-dependent kinase 16 (Mus musculus), Q04735 P205A;T207A;R210A;E211A” was “disrupting interaction strength”; that for “Cyclin-dependent kinase 16 (Mus musculus), Q04735 S153A” was “increasing interaction strength”.
The value for “Cyclin-dependent kinase 16 (Mus musculus), Q04735 S110A” was “decreasing interaction strength”.
As for “Cyclin-dependent kinase 16 (Mus musculus), Q04735 T175D”, the “effect of a mutation on the interaction” value is given as “increasing interaction strength”.
The value for “Cyclin-dependent kinase 16 (Mus musculus), Q04735 S110D” was “decreasing interaction strength”; that for “Cyclin-dependent kinase 16 (Mus musculus), Q04735 S146A” was “disrupting interaction strength”.
The result for “Cyclin-dependent kinase 16 (Mus musculus), Q04735 S119A” reads “decreasing interaction strength”.
